B1: IIA1: parent mouse IgG1 class anti-α5β1 antibody shown to inhibit α5β1 integrin binding to fibronectin (antibody, V domains shown)
VH: MAVLGLLLCLVTFPSCVLSQVQLKESGPGLVAPSQSLSITCTISGFSLTDYGVHWVRQPPGKGLEWLVVIWSDGSSTYNSALKSRMTIRKDNSKSQVFLIMNSLQTDDSAMYYCARHGTYYGMTTTGDALDYWGQGTSVTVSS
VL: MDFQVQIFSFLLISASVIMSRGQIVLTQSPAIMSASLGERVTMTCTASSSVSSNYLHWYQQKPGSAPNLWIYSTSNLASGVPARFSGSGSGTSYSLTISSMEAEDAATYYCHQYLRSPPTFGGGTKLEIK
modifications: mus muscalus
B2: M200: chimeric IgG4 anti-α5β1 antibody derived from IIA1; generic name volociximab (antibody, V domains shown)
VH: MAVLGLLLCLVTFPSCVLSQVQLKESGPGLVAPSQSLSITCTISGFSLTDYGVHWVRQPPGKGLEWLVVIWSDGSSTYNSALKSRMTIRKDNSKSQVFLIMNSLQTDDSAMYYCARHGTYYGMTTTGDALDYWGQGTSVTVSS
VL: MDFQVQIFSFLLISASVIMSRGQIVLTQSPAIMSASLGERVTMTCTASSSVSSNYLHWYQQKPGSAPNLWIYSTSNLASGVPARFSGSGSGTSYSLTISSMEAEDAATYYCHQYLRSPPTFGGGTKLEIKDMSVDMSV
modifications: chimeric antibody
notes: chimeric IgG4 anti-α5β1 antibody derived from IIA1; generic name volociximab

Columns and labels:
LOX cells = experiment: LOX orthotopic xenograft in SCID mice; type: in vivo; settings: 10 mg/kg intraperitoneally, 3 times/week for 3 weeks
Experimental: (§1) NW231 and LOX cells were grown as orthotopic xenografts in SCID mice and challenged with the anti-α5β1 antibodies M200 and IIA1 by intraperitoneal injection.
(§2) Immune compromised mice CB-17 SCID (strain C.B-Igh1/IcrTac-Prkdc) were obtained from Taconic Farms (Germantown, N.Y.). Studies were initiated using female mice between the ages of 6-10 weeks (˜20 grams in weight). Animals were pre-dosed with M200, IIA1 or control IgG intraperitoneally at a dose of 10 mg/kg 1 hour prior to NW231 inoculation (1×10^7 cells in IMDM) into the mammary fat pad. Dosing continued for 3 weeks at a frequency of 3 times/week at 10 mg/kg. Tumor volume was measured twice weekly by caliper and calculated by π/6×length×width×height. Clinical and mortality observations were performed daily according to IACUC regulations.

NW231 cells = experiment: NW231 orthotopic xenograft in SCID mice; type: in vivo; settings: 10 mg/kg intraperitoneally, 3 times/week for 3 weeks
Experimental: as §1, §2

VX2 cancer cells = experiment: SCID mouse VX2 xenograft model; type: in vivo; settings: SCID mice; 10 mg/kg intraperitoneally, 3 times/week for 3 weeks
Experimental: as §2, with “M200, IIA1,” for “M200, IIA1”, “mg/kg one” for “mg/kg 1”, “to VX2” for “to NW231”, “in Iscove's Modified Dulbecco's Medium)” for “in IMDM)”, “Dosing was” for “Dosing”

mouse α5β1 integrin = mouse α5β1 integrin (Mus musculus, UniProt P09055+P11688); experiment: species cross-reactivity of anti-α5β1 antibody; type: binding
Chain of mouse α5β1 integrin (P11688 45-1053): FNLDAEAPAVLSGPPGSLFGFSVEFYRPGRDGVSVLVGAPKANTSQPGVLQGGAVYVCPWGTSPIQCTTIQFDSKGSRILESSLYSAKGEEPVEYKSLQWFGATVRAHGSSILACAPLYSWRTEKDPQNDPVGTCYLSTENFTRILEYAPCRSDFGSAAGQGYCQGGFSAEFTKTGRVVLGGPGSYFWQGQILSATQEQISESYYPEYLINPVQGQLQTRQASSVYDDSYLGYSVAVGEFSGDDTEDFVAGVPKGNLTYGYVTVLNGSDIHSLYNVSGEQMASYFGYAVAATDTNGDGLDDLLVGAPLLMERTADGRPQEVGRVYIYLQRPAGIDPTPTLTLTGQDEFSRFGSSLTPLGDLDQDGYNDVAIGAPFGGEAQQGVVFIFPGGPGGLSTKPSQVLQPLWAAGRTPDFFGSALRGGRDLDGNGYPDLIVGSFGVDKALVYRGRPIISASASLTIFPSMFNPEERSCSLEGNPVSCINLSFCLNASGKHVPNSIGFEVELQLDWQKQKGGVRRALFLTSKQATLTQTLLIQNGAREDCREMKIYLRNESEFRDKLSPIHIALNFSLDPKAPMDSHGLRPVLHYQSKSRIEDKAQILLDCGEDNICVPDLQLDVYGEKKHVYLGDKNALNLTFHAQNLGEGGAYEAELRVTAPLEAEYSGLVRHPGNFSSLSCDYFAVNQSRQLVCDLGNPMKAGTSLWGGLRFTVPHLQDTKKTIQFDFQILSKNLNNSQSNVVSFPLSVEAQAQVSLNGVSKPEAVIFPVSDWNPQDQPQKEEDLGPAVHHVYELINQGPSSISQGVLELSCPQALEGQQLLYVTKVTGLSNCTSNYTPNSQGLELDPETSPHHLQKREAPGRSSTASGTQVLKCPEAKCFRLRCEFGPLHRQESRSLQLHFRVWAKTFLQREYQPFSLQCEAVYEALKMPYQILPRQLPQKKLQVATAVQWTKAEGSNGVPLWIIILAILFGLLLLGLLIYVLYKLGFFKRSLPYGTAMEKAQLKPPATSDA
Chain of mouse α5β1 integrin (P09055 21-798): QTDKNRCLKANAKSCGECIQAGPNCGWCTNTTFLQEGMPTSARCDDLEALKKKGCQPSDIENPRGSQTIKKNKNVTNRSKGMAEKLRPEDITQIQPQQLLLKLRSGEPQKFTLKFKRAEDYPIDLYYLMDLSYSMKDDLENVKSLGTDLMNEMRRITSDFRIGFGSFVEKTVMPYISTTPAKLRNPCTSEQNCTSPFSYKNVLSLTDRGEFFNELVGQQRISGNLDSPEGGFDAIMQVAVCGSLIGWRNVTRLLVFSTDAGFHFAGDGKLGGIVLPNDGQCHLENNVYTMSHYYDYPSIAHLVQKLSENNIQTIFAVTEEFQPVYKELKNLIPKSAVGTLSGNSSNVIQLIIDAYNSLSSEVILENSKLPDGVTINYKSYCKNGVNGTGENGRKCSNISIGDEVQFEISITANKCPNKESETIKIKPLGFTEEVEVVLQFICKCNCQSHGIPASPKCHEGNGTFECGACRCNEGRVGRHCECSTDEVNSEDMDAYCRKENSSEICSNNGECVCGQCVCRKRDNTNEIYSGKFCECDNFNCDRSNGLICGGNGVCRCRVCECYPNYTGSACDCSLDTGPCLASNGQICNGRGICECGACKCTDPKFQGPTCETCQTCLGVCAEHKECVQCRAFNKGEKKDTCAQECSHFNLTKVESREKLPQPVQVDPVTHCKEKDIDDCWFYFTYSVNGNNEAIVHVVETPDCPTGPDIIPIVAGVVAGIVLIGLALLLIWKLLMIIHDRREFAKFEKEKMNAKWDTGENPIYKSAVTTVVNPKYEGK

[1] = tested on: activated endothelial cells; settings: regardless of the growth factor stimulus; cited from earlier work
refractory solid tumors = experiment: Phase I extension study: tumor response; type: in vivo, human
Experimental: A two-part Phase I open-label study was carried to determine the effects of treatment with up to 6 dose levels, from 0.5 mg/kg to 15.0 mg/kg of M200 (volociximab) in 21 human patients with a variety of refractory solid tumor types. The total duration of treatment for the first part was 6 weeks with physical assessments through 45 days after the last dose.
Patient evaluations during the study included the following: • a. Screening (within 14 days of study entry) of: medical history and physical examination, ECOG performance status, routine chemistry panel, complete blood count (CBC) with differential and platelets, sensitive C-reactive protein (CRP), urinalysis with microscopic analysis (UA/micro), electrocardiogram (ECG), chest radiograph (CXR), disease-directed body CT or MRI, urine pregnancy test within 48 hours prior to dosing, and coagulation studies (prothrombin [PT] and partial thromboplastin time [PTT]), anti-M200 antibodies (i.e., to detect cross-reactive HAMA or HACA) for patients who previously received murine or chimeric antibodies, head CT for patients with tumors that commonly metastasize to brain or CNS, and, in some patients, a biopsy to evaluate tumor vessel vascularity. • b. On-study laboratory evaluations: routine chemistry panel, urate, serum amylase, CBC with differential and platelets, UA/micro. • c. Routine disease-directed radiographic imaging (e.g., CT scanning) before and after treatment with M200 was used to evaluate tumor response using uni-dimensional, RECIST criteria. Target lesions were selected on the basis of their size (lesions with the longest diameter (LD)) and their suitability for accurate repetitive measurements (either by imaging techniques or clinically). A sum of the LD for all target lesions was calculated and reported as the baseline sum LD. The baseline sum LD was used as reference by which to characterize the objective tumor response. The following response criteria for the target lesions was used to assess the best overall response. • Complete Response (CR): Disappearance of all target lesions confirmed by repeat imaging 25 to 28 days after CR first documented. • Partial Response (PR): At least a 30% decrease in the sum of LD of target lesions, taking as reference the baseline sum LD, confirmed by repeat imaging 25 to 28 days after PR first documented. • Stable Disease (SD): Neither sufficient shrinkage to qualify for PR nor sufficient increase to qualify for PD, taking as references the smallest sum LD. • Progressive Disease (PD): At least a 20% increase in the sum of LD of target lesions, taking as reference the smallest sum LD recorded since treatment started, or the appearance of one or more new lesions. • d. Blood drawn for serum PK measurements, immunogenicity assays (anti-M200 antibodies), vascular growth factors, and measurement of bound and unbound α5β1 on peripheral blood monocytes. • e. A 3-mm punch biopsy of superficial tumor metastasis was obtained and frozen after the last treatment with M200 from patients who consented (not required for enrollment) to the procedure. This biopsy specimen could be used evaluate tumor vessel vascularity following treatment with M200.
One of these patients with renal cell cancer (RCC) in the 15.0 mg/kg cohort achieved a partial response.

[2] = Phase I dose-escalation study: safety / adverse events; type: in vivo, human
Experimental: The dosing levels and schedule used in the study were as follows. M200 was administered to the 21 patients on days 1, 15, 22, 29, and 36. The dosing levels and numbers of patients per level were: 0.5 mg/kg (1 patient), 1.0 mg/kg (2 patient), 2.5 mg/kg (3 patients), 5.0 mg/kg (3 patients), 10.0 mg/kg (6 patients) and 15 mg/kg (6 patients). The dose was administered as an intravenous infusion over 1 hour. The first and second doses were separated by a two week period to allow sampling for single-dose pharmacokinetic data. The real-time PK measurements performed following the first dose were used to predict each patient's peak serum concentration following the fifth dose. If the predicted peak serum concentration following the fifth dose was <750 μg/mL, the patient received all 5 doses of M200. The remaining 3 doses were given weekly and followed by a 45-day evaluation period.
Adverse events were graded using the National Cancer Institute (NCI) Common Terminology Criteria for Adverse Events (CTCAE), version 3.0. Dose-limiting toxicity was defined as any Grade-3 or Grade-4 adverse event, excluding scheduled hospitalizations or elective surgeries. Grade-3 or Grade-4 adverse events thought to be unrelated to M200 were excluded where appropriate following a review with the medical monitor and regulatory agencies.

| Molecule | LOX xenograft tumor growth (LOX cells) | NW231 xenograft tumor growth (NW231 cells) | VX2 xenograft tumor growth versus control IgG (VX2 cancer cells) | recognition of mouse α5β1 integrin (mouse α5β1 integrin) | apoptosis of activated endothelial cells in vitro [1] | Best Response Outcome (refractory solid tumors; 2.5 mg/kg, 1 patient, NSCLC) | Time to Progression (refractory solid tumors; 2.5 mg/kg, 1 patient, NSCLC, includes 43 days on dose escalation study) [days] | Best Response Outcome (refractory solid tumors; 5 mg/kg, 1 patient, HCC) | Time to Progression (refractory solid tumors; 5 mg/kg, 1 patient, HCC, includes 43 days on dose escalation study) [days] | Time to Progression (refractory solid tumors; 10 mg/kg, 1 patient, CRC, includes 43 days on dose escalation study) [days] | Best Response Outcome (refractory solid tumors; 10 mg/kg, 1 patient, PARO) | Time to Progression (refractory solid tumors; 10 mg/kg, 1 patient, PARO, includes 43 days on dose escalation study) [days] | Best Response Outcome (refractory solid tumors; 15 mg/kg, 1 patient, MEL) | Time to Progression (Days) (refractory solid tumors; 15 mg/kg, 1 patient, MEL, on study, includes 43 days on dose escalation study) | Time to Progression (refractory solid tumors; 15 mg/kg, 1 patient, RCC, includes 43 days on dose escalation study) [days] | patients exhibiting stable disease (SD) or better response (refractory solid tumors; of the 6 patients in the extension study) [patients] | dose-limiting toxicities ([2]; doses up to 15 mg/kg) | tolerability in patients ([2]; doses up to 15 mg/kg) | adverse events, intensity ([2]; fatigue, nausea, constipation, headache and anorexia) | infusion reaction ([2]; the one patient who received 0.5 mg/kg) |
| --- | --- | --- | --- | --- | --- | --- | --- | --- | --- | --- | --- | --- | --- | --- | --- | --- | --- | --- | --- | --- |
| B1 | reproducibly inhibit | reproducibly inhibit | did not correlate with a decreased rate of VX2 tumor growth | does not recognize |  |  |  |  |  |  |  |  |  |  |  |  |  |  |  |  |
| B2 | not found to reproducibly inhibit tumor growth | not found to reproducibly inhibit tumor growth | did not correlate with a decreased rate of VX2 tumor growth | does not cross react | induce apoptosis | SD (SD defined as stabilization for ≧16 weeks (112 days)) | 129 | SD (SD defined as stabilization for ≧16 weeks (112 days)) | 122 | 70 | SD (SD defined as stabilization for ≧16 weeks (112 days)) | 143 | SD (SD defined as stabilization for ≧16 weeks (112 days)) | 172+ (on Study) Days | 214 | 5 | no dose-limiting M200 toxicities were observed | well tolerated | generally mild to moderate in intensity | fever after the first dose |
